The text below walks through data of patent US20090269840A1 (UCB, published 2009).

For experiment [1], the target named is T1, 7 Ig-domain human KDR fused to human Fc (human, UniProt P35968 20-764).
T1 construct: domain: 7 Ig-domain; also called human 7-domain KDR-Fc; KDR-Fc; not shown: human Fc
The experiment in a line: BIAcore, KDR-Fc captured on anti-Fc chip, fragment passed over. From the text: (§1) 7 Ig-domain human KDR fused to human Fc was captured on a chip coated with anti-Fc, and the various fragments of the CDR grafted antibody g165 and the murine parent antibody VR165 were passed over permitting affinity determination. The table below summarises the results obtained. In this assay format, there is an advantage of divalency as shown by the lower off rates (Kd) of the divalent species. The affinity of the grafted DFM is very similar to the murine IgG, with the DFM-PEG showing a minor reduction of affinity.
(In general: In SPR one partner is held on a chip, and binding of the other changes the refractive index at the surface.)

Experiment [2] has as its target T1, 7 Ig-domain human KDR fused to human Fc. The experiment in a line: radioimmunoassay: 7 Ig-domain KDR-human Fc captured by polyclonal anti-Fc on a microtitre plate, fragment added, then 125-I labeled VEGF-165 as the blocked ligand. On the procedure:
The ability of the fragments to block VEGF binding to KDR was measured in a radioimmunoassay.

Experiment [3] shares this target. The experiment in a line: BIAcore, KDR-Fc captured on anti-Fc chip, antibody passed over.
Description: as §1

T1 sequence (P35968 20-764 limits assumed): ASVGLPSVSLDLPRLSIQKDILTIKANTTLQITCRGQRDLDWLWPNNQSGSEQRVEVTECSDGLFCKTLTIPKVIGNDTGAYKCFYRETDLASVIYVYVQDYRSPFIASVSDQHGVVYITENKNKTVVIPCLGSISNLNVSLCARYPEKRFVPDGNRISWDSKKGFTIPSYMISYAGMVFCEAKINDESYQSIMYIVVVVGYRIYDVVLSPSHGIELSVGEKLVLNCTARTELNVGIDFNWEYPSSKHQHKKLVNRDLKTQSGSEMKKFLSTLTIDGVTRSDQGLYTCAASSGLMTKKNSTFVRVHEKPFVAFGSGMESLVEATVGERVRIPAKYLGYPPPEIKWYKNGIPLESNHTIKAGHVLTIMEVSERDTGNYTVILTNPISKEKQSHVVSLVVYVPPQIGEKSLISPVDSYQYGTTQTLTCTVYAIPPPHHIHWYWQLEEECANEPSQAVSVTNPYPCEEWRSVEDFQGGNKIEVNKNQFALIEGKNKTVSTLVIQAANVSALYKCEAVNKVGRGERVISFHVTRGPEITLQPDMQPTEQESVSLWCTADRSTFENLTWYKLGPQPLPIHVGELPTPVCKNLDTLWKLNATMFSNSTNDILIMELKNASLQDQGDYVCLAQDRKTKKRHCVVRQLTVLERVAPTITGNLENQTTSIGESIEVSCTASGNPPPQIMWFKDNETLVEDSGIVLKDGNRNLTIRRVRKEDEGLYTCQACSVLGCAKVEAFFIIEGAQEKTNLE

B1: g165 DFM-PEG40 (PEGylated di-(modified Fab) of g165) (other)
light: DIQMTQSPSSLSASVGDRVTITCRASQDIAGSLNWLQQKPGKAIKRLIYATSSLDSGVPKRFSGSRSGSDYTLTISSLQPEDFATYYCLQYGSFPPTFGQGTKVEIKRTVAAPSVFIFPPSDEQLKSGTASVVCLLNNFYPREAKVQWKVDNALQSGNSQESVTEQDSKDSTYSLSSTLTLSKADYEKHKVYACEVTHQGLSSPVTKSFNRGEC
heavy: EVQLVESGGGLVQPGGSLRLSCAASGFTFSSYGMSWVRQAPGKGLEWVATITSGGSYTYYVDSVKGRFTISRDNAKNTLYLQMNSLRAEDTAVYYCVRIGEDALDYWGQGTLVTVSSASTKGPSVFPLAPSSKSTSGGTAALGCLVKDYFPEPVTVSWNSGALTSGVHTFPAVLQSSGLYSLSSVVTVPSSLGTQTYICNVNHKPSNTKVDKKVEPKSCDKTHTCAA
modifications: hinge cysteine linked to (mPEG)-lysyl bis-maleimide (PEG about 40 kDa)
notes: no limits stated
Broadly, the Kd is a measure of binding affinity in units of concentration. The low end stands for higher affinity, the high end for lower affinity. In the case of B1, binding in experiment [1] was characterised by a dissociation constant (Kd) of 0.041 nM. The “IC50 (read off the curve)” value in experiment [2] is around 0.05 µg/mL.

B2: g165 DFM (di-(modified Fab) of the CDR-grafted antibody g165, naked) (other)
light: DIQMTQSPSSLSASVGDRVTITCRASQDIAGSLNWLQQKPGKAIKRLIYATSSLDSGVPKRFSGSRSGSDYTLTISSLQPEDFATYYCLQYGSFPPTFGQGTKVEIKRTVAAPSVFIFPPSDEQLKSGTASVVCLLNNFYPREAKVQWKVDNALQSGNSQESVTEQDSKDSTYSLSSTLTLSKADYEKHKVYACEVTHQGLSSPVTKSFNRGEC
heavy: EVQLVESGGGLVQPGGSLRLSCAASGFTFSSYGMSWVRQAPGKGLEWVATITSGGSYTYYVDSVKGRFTISRDNAKNTLYLQMNSLRAEDTAVYYCVRIGEDALDYWGQGTLVTVSSASTKGPSVFPLAPSSKSTSGGTAALGCLVKDYFPEPVTVSWNSGALTSGVHTFPAVLQSSGLYSLSSVVTVPSSLGTQTYICNVNHKPSNTKVDKKVEPKSCDKTHTCAA
modifications: hinge cysteine cross-linked to the second Fab' (linker of the naked DFM not described)
notes: also called grafted DFM; naked DFM
As for B2, in experiment [1], binding was characterised by a dissociation constant (Kd) of 0.029 nM.

B3: mouse monoclonal antibody VR165 (antibody, mouse IgG2a, V domains shown)
VH: EVQLVESGGDLVKPGGSLKLSCAASGFTFSSYGMSWVRQTPDKRLQWVATITSGGSYTYYPDTVKGRFTISRDNAENTLYLQMSSLKSEDTAMYYCVRIGEDALDYWGQGTSVTVSS
VL: DIQMTQSPSSLSASLGERVSLTCRASQDIAGSLNWLRQEPDGTIKRLIYATSSLDSGVPKRFSGSRSGSDYSLTISSLESEDFVDYYCLQYGSFPPTFGGGSKLEIKR
notes: also called mIgG; murine IgG
For B3, the Kd in experiment [3] was 0.03 nM.

B4: g165 modified Fab (Fab') fragment, CDP791 (Fab, V domains shown)
VH: EVQLVESGGGLVQPGGSLRLSCAASGFTFSSYGMSWVRQAPGKGLEWVATITSGGSYTYYVDSVKGRFTISRDNAKNTLYLQMNSLRAEDTAVYYCVRIGEDALDYWGQGTLVTVSS
VL: DIQMTQSPSSLSASVGDRVTITCRASQDIAGSLNWLQQKPGKAIKRLIYATSSLDSGVPKRFSGSRSGSDYTLTISSLQPEDFATYYCLQYGSFPPTFGQGTKVEIKR
notes: g165 = gL3gH3; no limits stated; also called CDP791 Fab
In experiment [1], B4 yielded a Kd of 0.91 nM. In experiment [2], the “IC50 (read off the curve)” value is around 0.2 µg/mL.

B5: g165 FAB-PEG40 (PEGylated modified Fab of g165) (Fab, V domains shown)
VH: EVQLVESGGGLVQPGGSLRLSCAASGFTFSSYGMSWVRQAPGKGLEWVATITSGGSYTYYVDSVKGRFTISRDNAKNTLYLQMNSLRAEDTAVYYCVRIGEDALDYWGQGTLVTVSS
VL: DIQMTQSPSSLSASVGDRVTITCRASQDIAGSLNWLQQKPGKAIKRLIYATSSLDSGVPKRFSGSRSGSDYTLTISSLQPEDFATYYCLQYGSFPPTFGQGTKVEIKR
modifications: single cysteine of the truncated hinge linked to (mPEG)-lysyl maleimide (two mPEG of about 20,000 Da, about 40,000 Da in all)
notes: no limits stated
With B5, the Kd in experiment [1] was 1.07 nM.
